Results reported in patent US9981005 (dated 2018).
Where two headings read alike, the source gives them in different places. Where no end group is shown, it is not given here. [ ]: non-standard residue; d: D form. pT = C[C@@H](OP(=O)(O)O)[C@H](N)C(=O)O; pS = N[C@@H](COP(=O)(O)O)C(=O)O; Flu = fluorescein

Columns and labels:
[1] = biological target: T1, Skp1-FBXW7 complex (human FBXW7 residues 263-707 with truncated Skp1) (UniProt P63208 1-163)
[2] = biological target: T1, Skp1-FBXW7 complex (human FBXW7 …); assay: fluorescence polarisation

| Binder | Kd [1] [nM] | Kd [2] [nM] |
| --- | --- | --- |
| Flu-VPP[pT]PPG[pS]H [Flu-VPPpTPPGpSH (doubly phosphorylated fluorescein-tagged DISC1 phosphodegron peptide)] | 1200 |  |
| Flu-VPP[pT]PPGSH [Flu-VPPpTPPGSH (singly phosphorylated fluorescein-tagged DISC1 phosphodegron peptide)] | 2300 |  |
| AKKAMLSEQNRASPLPSGLLTPPQSGKKQSS (other) [Cyclin E (test agent of the FP assay)] |  | 2000 |
